Bridges are numbered along the chain shown (N, C = ends). Where no end group is shown, it is not given here.
What was measured:
Assay type in all cases: in vivo
[1] = Acute toxicity in the mouse, ICR
Description: (§1) Animal: mouse (ICR, Swiss Albino and BDF1)
(§2) ICR (female, average body weight 25.0 g, age 5-6 weeks), Swiss Albino (female, average body weight 22.3 g, 5-6 weeks) and BDF1 (female, average body weight 21.5, 6 weeks) were divided into 6 groups consisting of 6 mice each, and predetermined amounts of SPH dissolved in 0.2 ml of physiological saline were administered intraperitoneally.

[2] = Acute toxicity in the mouse, Swiss Albino
Description: as §1, §2

[3] = Acute toxicity in the mouse, BDF1
Description: as §1, §2

[4] = Acute toxicity in the mouse, overall statement
Description: as §1, §2
Because the long term toxicity of SPH is low, the condition of the survival mice after recovery is similar to that of the control.

In the case of “KSCCRSTLGRNCYNLCRVRGAQKLCAGVCRCKLTSSGKCPTGFPK (disulfide 3-39, 4-31, 12-29, 16-25) [SPH]”, the “No. died (numerator)” value ([1]; 0.68 mg/Kg i.p.) is reported as 0/6, the “No. died (numerator)” value ([1]; 1.36 mg/Kg i.p.) is reported as 1/6 and the “No. died (numerator)” value ([1]; 2.04 mg/Kg i.p.) is reported as 4/6. For the same sequence, the “No. died (numerator)” value ([1]; 2.72 mg/Kg i.p.) was 6/6, the LD50 ([1]; i.p.) was 1.81 mg/kg and the “No. died (numerator)” value ([2]; 0.50 mg/Kg i.p.) was 0/6. For the same sequence, the “No. died (numerator)” value ([2]; 1.00 mg/Kg i.p.) was 1/6, the “No. died (numerator)” value ([2]; 1.50 mg/Kg i.p.) was 4/6 and the “No. died (numerator)” value ([2]; 2.00 mg/Kg i.p.) was 6/6. The LD50 ([2]; i.p.) was 1.33 mg/kg, the “No. died (numerator)” value ([3]; 1.00 mg/Kg i.p.) was 0/6 and the “No. died (numerator)” value ([3]; 1.50 mg/Kg i.p.) was 2/6. For the same sequence, the “No. died (numerator)” value ([3]; 2.00 mg/Kg i.p.) was 6/6, the “No. died (numerator)” value ([3]; 3.00 mg/Kg i.p.) was 6/6 and the LD50 ([3]; i.p.) was 1.58 mg/kg. For the same sequence, the LD50 ([4]; mouse, i.p., overall from Table 3) was “about 1.5 mg/Kg” and the long term toxicity ([4]; surviving mice after recovery similar to control) was “low”.

From US4497799A, “Polypeptide carcinostatic agent” (Suntory Ltd., priority 1981, dated 1985)
